Measured values published in patent US10119980B2, “Method for detection of basic peptide and reagent for detection of basic peptide” (SYSMEX CORPORATION, priority 2009, dated 2018).
Ends that are not written are not given here.

Key:
heat-denatured BSA = target: T1, heat-denatured BSA (Bos taurus, UniProt P02769); experiment: Turbidity (OD550) measurement and Hill plot analysis of peptides mixed with heat-denatured BSA reagent; type: binding, bovine; conditions: for change in OD550 with increasing peptide concentration: peptide mixed with heat-denatured BSA, final 0.2 w/v %; for Hill coefficient n: Example 5, peptide 0 to 80 μM
T1 construct: purchased Sigma-Aldrich
T1 sequence (P02769 25-607): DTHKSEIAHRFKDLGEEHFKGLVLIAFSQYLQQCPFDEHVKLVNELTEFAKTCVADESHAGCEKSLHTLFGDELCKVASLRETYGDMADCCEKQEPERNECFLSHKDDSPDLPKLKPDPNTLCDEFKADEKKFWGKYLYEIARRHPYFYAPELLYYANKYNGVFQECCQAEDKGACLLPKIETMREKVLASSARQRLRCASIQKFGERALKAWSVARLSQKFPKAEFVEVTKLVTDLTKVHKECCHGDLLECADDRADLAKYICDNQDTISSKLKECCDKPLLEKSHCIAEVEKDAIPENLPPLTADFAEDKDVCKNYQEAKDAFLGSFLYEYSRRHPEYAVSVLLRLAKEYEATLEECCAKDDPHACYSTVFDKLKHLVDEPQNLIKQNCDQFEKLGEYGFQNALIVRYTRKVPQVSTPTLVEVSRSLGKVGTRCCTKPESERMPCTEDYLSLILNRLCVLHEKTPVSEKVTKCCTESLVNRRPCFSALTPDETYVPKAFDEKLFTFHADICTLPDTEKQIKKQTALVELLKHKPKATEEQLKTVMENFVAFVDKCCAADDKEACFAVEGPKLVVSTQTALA
Procedure: A partial dynorphin A peptide consisting of amino acids of positions 1 to 13 of dynorphin A (SEQ ID NO: 2; Peptide Institute, Inc.) was used as the basic peptide of interest. A neutral peptide, α-endorphin (SEQ ID NO: 3; Peptide Institute, Inc.) was also used as a comparative peptide of interest. These peptides were dissolved in ultrapure water to prepare samples containing respective peptides (1.0 mg/ml).
(§1) The denatured BSA solution prepared in the above (1) (50 μl) was mixed with the respective samples prepared in (2) followed by addition of ultrapure water to prepare a total volume of 250 μl of mixed solutions containing respective peptides. In the preparation, the sample was mixed so as to obtain a final concentration of the respective peptides in the mixed solutions of 0 to 150 μM.
The thus-prepared mixed solutions were measured for OD550 in the similar manner as Example 1.
A fragment of kininogen (positions 439 to 457 (SEQ ID NO: 4); synthesized at Biologica Co.) and a fragment of ITIH4 (positions 611 to 642 (SEQ ID NO: 5); synthesized at Biologica Co.) which were known as cancer metastasis markers were used as basic peptides of interest. These peptides were dissolved in ultrapure water to prepare samples containing respective peptides (1.0 mg/ml).
as §1, with “80” for “150”
The thus-prepared mixed solutions were measured for OD550 in the similar manner as Example 1. The Kd value and Hill coefficient were calculated for the respective samples.
Besides a basic peptide, to be studied for comparison, a neutral peptide Fibrinogen α (SEQ ID NO: 6; Biological Co.) and acidic peptides C3f (SEQ ID NO: 7; Biologica Co.) and Factor XIII (SEQ ID NO: 8; Biologica Co.) were prepared. These peptides were dissolved in ultrapure water to prepare samples containing respective peptides (1.0 mg/ml).
as §1, with “solutions containing the respective peptides.” for “solutions containing respective peptides.”, “was mixed with the heat-denatured BSA solution so as” for “was mixed so as”, “0 to 80 μM.” for “0 to 150 μM.”

[1] = target: T2, partial ACTH peptide (positions 1 to 24 of ACTH) (Homo sapiens, UniProt P01189); experiment: Turbidity (OD550) measurement and Hill plot analysis of albumin reagents mixed with partial ACTH peptide; type: binding; conditions: for change in OD550 with increasing partial ACTH peptide concentration: albumin reagent mixed with partial ACTH peptide
T2 construct: consisting of the amino acids of positions 1 to 24 of ACTH
T2 sequence (P01189 138-161): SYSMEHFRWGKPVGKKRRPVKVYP
Procedure: BSA (Sigma-Aldrich) was dissolved in Milli-Q® water (Millipore) to prepare a BSA solution (1.0 w/v %). The BSA solution was divided into two and one was designated as a non-denatured BSA solution and the other was autoclaved at 110° C. for 15 minutes to obtain a heat-denatured BSA solution.
A partial ACTH peptide (Peptide Institute, Inc.) consisting of the amino acids of positions 1 to 24 of ACTH was used as the basic peptide of interest. The peptide was dissolved in ultrapure water to prepare a sample containing the basic peptide of interest (1.0 mg/ml).
The heat-denatured BSA solution prepared in the above (1) (50 μl) was mixed with the sample prepared in (2) followed by addition of ultrapure water to prepare a total volume of 250 μl of a mixed solution (final concentration of heat-denatured BSA: 0.2 w/v %). In this preparation, the sample was mixed so as to obtain a final concentration of the partial ACTH peptide in the mixed solution of 0 to 150 μM. A comparative mixed solution was also prepared in the similar manner except that the non-denatured BSA solution was used instead of the heat-denatured BSA solution.
The thus-prepared mixed solutions were measured for absorbance at the wavelength of 550 nm (OD550) in a spectrophotometer UV-2500PC (Shimadzu Corporation). The obtained results were subjected to Hill plot analysis with KaleidaGraph (HULINKS, Inc.) to calculate the values of Kd and the Hill coefficient of heat-denatured BSA and non-denatured BSA.
BSA (Sigma-Aldrich) was dissolved in Milli-Q® water (Millipore) to prepare a BSA solution (1.0 w/v %). The BSA solution was divided into five aliquots among which one was designated as a non-denatured BSA solution (heat denaturation period: 0 min) and the rest of four were heated in an autoclave at 110° C. for 5, 15, 60 and 120 min, respectively, to obtain heat-denatured BSA solutions.
The Kd value and Hill coefficient of BSA at respective heat denaturation periods were calculated. […]
The Kd value and Hill coefficient were calculated for the mixed solutions. […]

[2] = Example 1, final BSA 0.2 w/v %, peptide 0 to 150 μM, OD550 Hill plot
[3] = Example 6, albumin autoclaved at 115° C. for 15 minutes, final 0.2 w/v %, peptide 0 to 80 μM

**Q.** “C3f: acidic peptide C3f (SEQ ID NO: 7) (HWESASLL; listed as Homo sapiens)” was tested. Which “change in OD550 with increasing peptide concentration” value (heat-denatured BSA) did it give?
**A.** no change in OD550

**Q.** “HNLGHGHKHERDQGHGHQR [Kininogen (439-457)]” was tested. Which Hill coefficient n (heat-denatured BSA; OD550 Hill plot) did it give?
**A.** 8

**Q.** What about the “change in OD550 with increasing peptide concentration” value (heat-denatured BSA) of the same molecule?
**A.** increased

**Q.** Which “change in OD550 with increasing peptide concentration” value (heat-denatured BSA) does the source give for “α-endorphin (YGGFMTSEKSQTPLVT; listed as Homo sapiens)” here?
**A.** no change in OD550

**Q.** With “GESRNRNVHSGSTFFKYYLQGAKIPKPEASFS [ITIH4 (611-642)]” as the molecule, how does the Hill coefficient n (heat-denatured BSA; OD550 Hill plot) read?
**A.** 9

**Q.** What about the “change in OD550 with increasing peptide concentration” value (heat-denatured BSA) of the same molecule?
**A.** increased in a peptide concentration dependent manner

**Q.** What does the source list for `CC[C@H](C)[C@H](NC(=O)[C@H](CCCNC(=N)N)NC(=O)[C@H](CCCNC(=N)N)NC(=O)[C@H](CC(C)C)NC(=O)[C@H](Cc1ccccc1)NC(=O)CNC(=O)CNC(=O)[C@@H](N)Cc1ccc(O)cc1)C(=O)N[C@@H](CCCNC(=N)N)C(=O)N1CCC[C@H]1C(=O)N[C@@H](CCCCN)C(=O)N[C@@H](CC(C)C)C(=O)N[C@@H](CCCCN)C(=O)O` [partial dynorphin A peptide]?
**A.** Kd (heat-denatured BSA): 30 µM; Hill coefficient (heat-denatured BSA; Example 4, peptide 0 to 150 μM, OD550 Hill plot): 8; change in OD550 with increasing peptide concentration (heat-denatured BSA): increased in a concentration dependent manner

**Q.** “Factor XIII: acidic peptide Factor XIII (SEQ ID NO: 8) (AVPPNNSNAAEDDLPTVELQGVVPR; listed as Homo sapiens)” was tested. Which “change in OD550 with increasing peptide concentration” value (heat-denatured BSA) did it give?
**A.** no change in OD550

**Q.** Which “change in OD550 with increasing peptide concentration” value (heat-denatured BSA) does the source give for “Fibrinogen α: neutral peptide Fibrinogen α (SEQ ID NO: 6) (DEAGSEADHEGTHSTKRGHAKSRPV; listed as Homo sapiens)” here?
**A.** no change in OD550

**Q.** With “Non-denatured BSA: BSA (Sigma-Aldrich) solution 1.0 w/v %, not heated; comparative reagent [reference compound]” as the molecule, how does the Hill coefficient n [1, 2] read?
**A.** 1

**Q.** What about the Kd [1, 2] of the same molecule?
**A.** 290 µM

**Q.** What about the “change in OD550 with increasing partial ACTH peptide concentration” value [1] of the same molecule?
**A.** significant change in the value of OD550 was not observed

**Q.** And the “change in OD550 with increasing partial ACTH peptide concentration” value ([1]; listed as BSA solution that was heat-denatured for 0 min)?
**A.** not changed

**Q.** And the Hill coefficient n ([1]; heat denaturation period 0 min)?
**A.** 1

**Q.** And the Kd ([1]; heat denaturation period 0 min)?
**A.** 290 µM

B1: Heat-denatured OA: ovoalbumin solution (1.0 w/v %), pH 5 to 7, autoclaved at 115° C. for 15 minutes (protein)
chain: GSIGAASMEFCFDVFKELKVHHANENIFYCPIAIMSALAMVYLGAKDSTRTQINKVVRFDKLPGFGDSIEAQCGTSVNVHSSLRDILNQITKPNDVYSFSLASRLYAEERYPILPEYLQCVKELYRGGLEPINFQTAADQARELINSWVESQTNGIIRNVLQPSSVDSQTAMVLVNAIVFKGLWEKAFKDEDTQAMPFRVTEQESKPVQMMYQIGLFRVASMASEKMKILELPFASGTMSMLVLLPDEVSGLEQLESIINFEKLTEWTSSNVMEERKIKVYLPRMKMEEKYNLTSVLMAMGITDVFSSSANLSGISSAESLKISQAVHAAHAEINEAGREVVGSAEAGVDAASVSEEFRADHPFLFCIKHIATNAVLFFGRCVSP
**Q.** B1 was tested. Which Hill coefficient n [1, 3] did it give?
**A.** 3

**Q.** What about the Kd [1, 3] of the same molecule?
**A.** 67 µM

**Q.** What about the Hill coefficient n ([1]; Example 6, albumin autoclaved at 115° C. for 15 minutes, final 0.2 w/v %, peptide 0 to 80 μM, listed as heat-denatured OA) of the same molecule?
**A.** 11

**Q.** And the “change in OD550 with increasing partial ACTH peptide concentration” value [1]?
**A.** increase in a manner dependent on the concentrations of the basic peptide
